Laboratory results as given in patent publication US20060002901A1, “Composition containing eosinophil cationic protein” (priority 2002, published 2006).

B1: RNaseA: RNaseA, added as comparison protein alongside ECP (protein, UniProt P61823 27-150, looked up)
Ribonuclease pancreatic: KETAAAKFERQHMDSSTSAASSSNYCNQMMKSRNLTKDRCKPVNTFVHESLADVQAVCSQKNVACKNGQTNCYQSYSTMSITDCRETGSSKYPNCAYKTTQANKHIIVACEGNPYVPVHFDASV
B2: eosinophil cationic protein (protein, UniProt P12724 28-160, looked up)
Eosinophil cationic protein: RPPQFTRAQWFAIQHISLNPPRCTIAMRAINNYRWRCKNQNTFLRTTFANVVNVCGNQSIRCPHNRTLNNCHRSRFRVPLLHCDLINPGAQNISNCTYADRPGRRFYVVACDNRDPRDSPRYPVVPVHLDTTI

Tests used:
BALB/c 3T3 cells [1] = experiment: Proliferation of BALB/c 3T3 cells in low-serum medium, phase-contrast microscopy; format: cell-based, mouse; conditions: 0.5% FBS, 1 μM ECP, 60 pM bFGF, 48 hours, FIG. 4
Protocol: In DMEM culture medium containing 10% FBS in a 24-well culture plate, BALB/c 3T3 cells were inoculated at a concentration of 2×10^4 cells/well, and cultured. […] After 24 hours, 1 μM ECP or RNaseA, and 60 pM bFGF were added to the culture solution in combination, respectively, then the culture was continued for an additional 48 hours.

BALB/c 3T3 A31-K cells = experiment: Proliferation of BALB/c 3T3 cells, number of living cells after 48 hours; format: cell-based, mouse; conditions: 10% FBS, FIG. 2
Protocol: In DMEM culture medium containing 10% FBS in a 96-well culture plate, BALB/c 3T3 A31-K cells were inoculated at a concentration of 1000 cells/well, and after 24 hours, ECP or RNaseA was added to the culture solution to a final concentration of 1 μM, respectively. After the culture was continued for 48 hours, the number of living cells was counted.

[2] = system: aortic smooth muscle cell line (A10); experiment: Proliferation of cell lines derived from normal tissue, 10% FBS, MTT; format: cell-based; conditions: ECP 0 to 10 μM, 48 hours, FIG. 1
Protocol: (§1) The effects of ECP on the proliferation of a mouse fibroblast cell line (BALB/c 3T3), aortic smooth muscle cell line (A10), mouse mammary epithelial cell line (HC-11) and human umbilical vessel endothelial cell line (HUVEC) were analyzed in the presence of 10% FBS. First, in DMEM culture medium containing 10% FBS in a 96-well culture plate, each cell line was inoculated at a concentration of 500 cells/well. Then, the cells were cultured for 24 hours in an incubator in which CO2 was maintained at 5%. Then, the respective concentrations of ECP and RNaseA (0 to 10 μM) were added, and the culture was continued for 48 hours in the same incubator. Then, 3-(4,5-dimethylthiazol-2-yl)-diphenyl-tetrazolium bromide (MTT) was added, and the proliferation rate of each cell line was obtained.

[3] = system: human umbilical vessel endothelial cell line (HUVEC); experiment: as above; format: cell-based; conditions: ECP 0 to 10 μM, 48 hours, FIG. 1
Protocol: as §1

[4] = system: mouse fibroblast cell line (BALB/c 3T3); experiment: as above; format: cell-based; conditions: ECP 0 to 10 μM, 48 hours, FIG. 1
Protocol: as §1

[5] = system: mouse mammary epithelial cell line (HC-11); experiment: as above; format: cell-based; conditions: ECP 0 to 10 μM, 48 hours, FIG. 1
Protocol: as §1

BALB/c 3T3 cells [6] = experiment: Time-course proliferation of BALB/c 3T3 cells, living cells counted every 24 hours; format: cell-based, mouse; conditions: 10% FBS, 4 days, medium changed on day 2, FIG. 3
Protocol: In DMEM culture medium containing 10% FBS in a 96-well culture plate, BALB/c 3T3 cells were inoculated at a concentration of 1000 cells/well. After the cells were cultured for 24 hours, 1 μM ECP or 1 μM RNaseA was added to the culture solution to a final concentration of […], respectively. The culture was continued for 4 days, and the number of living cells was counted for every 24 hours. Incidentally, the culture medium was changed on day 2 of the culture.

BALB/c 3T3 cells [7] = experiment: Cytoskeletal molecule (stress fiber) formation in low-serum medium, confocal immunostaining; format: cell-based, mouse; conditions: 0.5% FBS, 1 μM ECP, 6 hours, FIG. 5
Protocol: A round cover glass with a diameter of 15 mm which had been sterilized in advance was placed in a 24-well culture plate, 1× phosphate buffer (PBS) containing 0.1% gelatin was added to each well so that the cover glass was sufficiently dipped in the solution. Then, the plate was left at room temperature for 30 minutes, whereby the cover glass was coated with gelatin. Then, each well was filled with DMEM culture medium containing 10% FBS, and BALB/c 3T3 cells were inoculated at a concentration of 2×10^4 cells/well and cultured. […] After an additional 24 hours, 1 μM ECP or RNaseA was added to the culture solution, respectively. After 6 hours, the cover glass on which BALB/c 3T3 cells were grown, was taken out from the well, washed 2 to 3 times with 1× PBS, then dipped in 4% formaldehyde (Wako Pure Chemical Industries, Ltd.) at room temperature for 10 minutes, whereby the cells were fixed. Then, the cover glass was washed 2 to 3 times with 1× PBS, dipped in 1× PBS containing 0.1% Trton-X100 for 10 minutes, whereby the cell membranes were lysed. Then, the cover glass was washed 2 to 3 times with 1× PBS, dipped in 0.5% BSA/PBS and left at room temperature for 30 minutes, whereby a nonspecific adsorption region was blocked with BSA in this operation. […]

[8] = system: myocardial cell derived from newborn rat; experiment: Immunofluorescence staining of dedifferentiated myocardial cells; format: cell-based; conditions: ECP 100 ng/ml; 24 hours; FIG. 8
Protocol: The cultured myocardial cells were cultured in SFM (2 μM BrDU, 100 units/ml penicillin, 100 μg/ml streptomycin) for 48 hours, whereby the cells were dedifferentiated. Then, the culture medium was changed, and ECP was added to a final concentration of 100 ng/ml. After an additional 24 hours, the cells were washed three times with 1× PBS for 10 minutes each, then dipped in 4% paraformaldehyde at room temperature for 30 minutes, whereby the cells were fixed. Then, the cells were dipped in PBS containing 0.25% Triton-X100 at room temperature for 15 minutes, and reacted in a blocking buffer containing BSA, to which anti-ENH1 antibody had been added at a ratio of 1:40, or anti-α-actinin antibody had been added at a ratio of 1:100, at 4° C. overnight. Then, a 20-minute washing with PBS containing 0.03% Triton-X100 was performed and the washing was repeated three times. To the blocking buffer, Cy3-labeled anti-mouse antibody and Cy2-labeled anti-rabbit IgG antibody were added (1:250 dilution in blocking buffer), respectively, and reaction was performed at 4° C. for 4 hours. After the reaction, a 20-minute washing with PBS containing 0.03% Triton-X100 was performed again and the washing was repeated three times. Then, water content was removed and 90% glycerol was added.

[9] = system: myocardial cell derived from newborn rat; experiment: Number of heartbeats of myocardial cells; format: cell-based; conditions: ECP 10 ng, 100 ng or 1 μg per ml; 24 hours; FIG. 9
Protocol: Myocardial cells isolated from a newborn rat were dedifferentiated in the same manner as in Example 7 and ECP was added to the culture solution (10 ng, 100 ng or 1 μg per ml). Twenty-four hours after the addition, the number of heartbeats was counted.
Further, the effects of a ROCK inhibitor (Y27632) on the effects of ECP on increase in the number of heartbeats of myocardial cell were studied. The adding amounts of Y27632 were set at 0, 5, 10 and 15 μM, and the ECP concentration was set at 100 ng/ml.

PC12 cells = experiment: Survival of nerve like PC12 cells in serum-free medium, Cell Titer-Glo; format: cell-based; conditions: serum-free DMEM, 72 hours, ECP 10 and 1000 ng/ml, FIG. 11
Protocol: PC12 cells were cultured overnight in a 96-well culture plate at 1×10^4 cells/well/100 μl. As the culture medium, DMEM culture medium containing 10% FBS, penicillin, and streptomycin was used. Then, washing was performed once with 150 μl of DMEM, and the medium was changed to DMEM culture medium containing 100 μl of ECP, penicillin, and streptomycin. After cells were cultured for 72 hours, the number of living cells was counted using Cell Titer-GloTM Luminescent Cell Viability Assay (No. G7570; Promega).

MC3T3-E1 cells = experiment: Alkali phosphatase (ALP) activity in osteoblast-like cells; format: cell-based, rat; conditions: ECP at 1 ng/ml vs BMP-4 100 ng/ml, 72 hours, FIG. 12
Protocol: MC3T3-E1 cells were inoculated into α-MEM medium in a 24-well culture plate, and ECP (at a final concentration of 1 ng, 10 ng, 100 ng or 1 μg per ml), BMP-4 (100 ng/ml) or bFGF (100 ng/ml) was added. After 72 hours, the cells were washed with 10 mM Tris-HCl (pH 7.2) solution twice, and lysed in 10 mM Tris-HCl (pH 7.2) solution containing 0.1% Triton-X100. Then, the cell lysis solution was subjected to sonication treatment for 15 seconds to homoginize the cells. Then, 100 μl of the homogenized cell solution and 0.1 M aminomethyl propanol were mixed with 100 μl of a substrate solution (4 mg/ml p-nitorophenyl phosphate and 2 mM MgCl2) adjusted at pH 10.5, and they were reacted with each other at 37° C. for 30 minutes. The reaction was terminated with 0.5 M NaOH, and the absorbance at 410 nm was measured. The obtained value was divided by the total amount of proteins in the homogenized cell solution, whereby the specific activity was calculated.

Molecule | cell proliferation in low-serum medium (phase-contrast observation) (BALB/c 3T3 cells [1]) | cell proliferation (number of living cells) (BALB/c 3T3 A31-K cells) | cell proliferation (proliferation rate, MTT) [2] | cell proliferation (proliferation rate, MTT) [3] | cell proliferation (proliferation rate, MTT) [4] | cell proliferation (proliferation rate, MTT) [5] | time-course cell proliferation (number of living cells) (BALB/c 3T3 cells [6]) | formation of cytoskeletal molecules (stress fibers) (BALB/c 3T3 cells [7]) | effect on cardiac hypertrophy in myocardial cell (immunofluorescence staining) [8] | number of heartbeats of myocardial cell [9] | survival of nerve cells (number of living cells) (PC12 cells) | ALP activity (specific activity, control = 100%) (MC3T3-E1 cells)
bFGF: bFGF, added at 60 pM to low-serum culture | The cells were proliferated | – | – | – | – | – | – | – | – | – | – | –
B1 | – | could not be observed | – | – | – | – | – | – | – | – | – | –
B2 | – | significantly promoted the cell proliferation at any concentration | the proliferation was not promoted or the proliferation was inhibited | the proliferation was not promoted or the proliferation was inhibited | the cell proliferation was promoted | the proliferation was not promoted or the proliferation was inhibited | the proliferation of cells was significantly promoted | increase in the formation of many cytoskeletal molecules (stress fibers) was confirmed | an effect of ECP on cardiac hypertrophy in a myocardial cell was confirmed | increased in a dose-dependent manner | the survival of nerve cells was maintained | equal to or higher than that of BMP-4
